Assay results from article PMC8882007, “Syndapin-2 mediated transcytosis of amyloid-β across the blood–brain barrier” (Brain Communications, 2022).

T1: dynamin-2 (mouse (endogenous in bEnd3), UniProt P39054 1-870)
T1 construct: dynamin-2, endogenous in mouse brain endothelial cells (bEnd3); source: endogenous, bEnd3 mouse brain endothelial cells (fixed, permeabilized)
T1 sequence (looked up): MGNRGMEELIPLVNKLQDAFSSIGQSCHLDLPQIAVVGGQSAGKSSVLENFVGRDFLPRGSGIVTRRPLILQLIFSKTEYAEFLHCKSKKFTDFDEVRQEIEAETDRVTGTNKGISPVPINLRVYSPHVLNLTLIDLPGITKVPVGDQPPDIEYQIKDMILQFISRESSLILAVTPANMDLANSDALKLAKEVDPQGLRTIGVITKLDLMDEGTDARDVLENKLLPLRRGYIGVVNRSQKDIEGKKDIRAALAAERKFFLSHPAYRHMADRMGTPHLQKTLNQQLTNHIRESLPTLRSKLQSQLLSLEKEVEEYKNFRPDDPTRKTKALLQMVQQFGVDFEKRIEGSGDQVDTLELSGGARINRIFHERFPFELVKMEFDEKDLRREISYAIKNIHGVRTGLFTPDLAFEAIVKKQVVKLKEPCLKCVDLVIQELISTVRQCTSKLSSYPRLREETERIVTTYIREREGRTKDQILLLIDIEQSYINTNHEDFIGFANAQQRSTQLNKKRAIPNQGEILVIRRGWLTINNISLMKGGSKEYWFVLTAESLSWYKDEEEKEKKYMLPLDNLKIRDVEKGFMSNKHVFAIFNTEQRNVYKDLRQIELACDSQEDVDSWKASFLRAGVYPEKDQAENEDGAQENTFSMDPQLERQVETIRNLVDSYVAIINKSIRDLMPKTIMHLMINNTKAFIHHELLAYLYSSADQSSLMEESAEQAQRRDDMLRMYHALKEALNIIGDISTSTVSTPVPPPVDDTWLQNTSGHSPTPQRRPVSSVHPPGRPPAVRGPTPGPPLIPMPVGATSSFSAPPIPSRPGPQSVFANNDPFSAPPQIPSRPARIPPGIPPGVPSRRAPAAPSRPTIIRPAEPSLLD

T2: EEA-1 (mouse (endogenous in bEnd3), UniProt Q8BL66 1-1411)
T2 construct: EEA-1 (early endosome marker), endogenous in mouse brain endothelial cells (bEnd3); also called early endosomes (EEA-1); source: endogenous, bEnd3 mouse brain endothelial cells (fixed, permeabilized)
T2 sequence (looked up): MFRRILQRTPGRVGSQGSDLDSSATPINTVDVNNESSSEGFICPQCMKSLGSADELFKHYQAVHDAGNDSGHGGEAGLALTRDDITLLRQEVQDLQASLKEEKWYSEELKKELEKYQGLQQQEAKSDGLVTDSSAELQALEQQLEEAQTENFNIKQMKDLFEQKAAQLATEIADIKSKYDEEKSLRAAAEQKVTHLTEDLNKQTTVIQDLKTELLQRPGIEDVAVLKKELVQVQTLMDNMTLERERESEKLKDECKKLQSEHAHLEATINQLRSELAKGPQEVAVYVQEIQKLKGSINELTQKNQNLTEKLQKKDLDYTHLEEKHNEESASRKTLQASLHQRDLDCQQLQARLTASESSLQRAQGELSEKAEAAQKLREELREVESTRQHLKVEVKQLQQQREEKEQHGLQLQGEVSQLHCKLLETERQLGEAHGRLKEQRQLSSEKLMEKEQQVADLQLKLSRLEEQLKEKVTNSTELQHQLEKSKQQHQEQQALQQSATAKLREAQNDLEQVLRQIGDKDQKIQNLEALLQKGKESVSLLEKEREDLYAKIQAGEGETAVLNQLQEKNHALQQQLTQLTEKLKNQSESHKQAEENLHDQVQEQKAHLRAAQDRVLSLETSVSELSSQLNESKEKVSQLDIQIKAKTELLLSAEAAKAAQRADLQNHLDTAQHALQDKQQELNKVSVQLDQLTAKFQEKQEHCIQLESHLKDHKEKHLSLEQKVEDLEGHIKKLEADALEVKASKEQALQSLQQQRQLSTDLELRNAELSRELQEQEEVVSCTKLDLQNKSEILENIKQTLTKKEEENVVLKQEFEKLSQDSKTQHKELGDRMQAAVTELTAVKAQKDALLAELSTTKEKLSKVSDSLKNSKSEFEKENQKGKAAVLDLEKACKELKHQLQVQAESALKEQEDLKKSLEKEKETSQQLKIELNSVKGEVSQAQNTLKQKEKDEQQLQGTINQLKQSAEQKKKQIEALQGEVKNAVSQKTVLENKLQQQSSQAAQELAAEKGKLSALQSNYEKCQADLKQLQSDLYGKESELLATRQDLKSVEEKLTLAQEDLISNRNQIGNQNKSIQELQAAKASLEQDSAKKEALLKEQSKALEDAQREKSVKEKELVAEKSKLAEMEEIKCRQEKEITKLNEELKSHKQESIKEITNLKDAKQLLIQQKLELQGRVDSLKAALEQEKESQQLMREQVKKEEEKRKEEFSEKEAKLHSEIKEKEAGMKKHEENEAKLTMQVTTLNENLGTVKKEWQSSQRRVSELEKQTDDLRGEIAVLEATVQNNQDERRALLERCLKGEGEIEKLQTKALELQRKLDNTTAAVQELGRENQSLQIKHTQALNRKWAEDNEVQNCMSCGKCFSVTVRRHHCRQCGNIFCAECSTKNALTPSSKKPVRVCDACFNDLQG

B1: syndapin-2 (natural protein, mouse (endogenous in bEnd3), UniProt Q9WVE8 1-486, looked up)
chain: MSVTYDDSVGVEVSSDSFWEVGNYKRTVKRIDDGHRLCGDLMNCLHERARIEKAYAQQLTEWARRWRQLVEKGPQYGTVEKAWIAVMSEAERVSELHLEVKASLMNEDFEKIKNWQKEAFHKQMMGGFKETKEAEDGFRKAQKPWAKKLKEVEAAKKAHHTACKEEKLAISREANSKADPSLNPEQLKKLQDKIEKCKQDVLKTKDKYEKSLKELDQTTPQYMENMEQVFEQCQQFEEKRLRFFREVLLEVQKHLDLSNVASYKTIYRELEQSIKAADAVEDLRWFRANHGPGMAMNWPQFEEWSADLNRTLSRREKKKAVDGVTLTGINQTGDQSGQNKPGSNLSVPSNPAQSTQLQSSYNPFEDEDDTGSSISEKEDIKAKNVSSYEKTQTYPTDWSDDESNNPFSSTDANGDSNPFDEDTTSGTEVRVRALYDYEGQEHDELSFKAGDELTKIEDEDEQGWCKGRLDSGQVGLYPANYVEAIQ
notes: syndapin-2 (PACSIN-2), F-BAR protein, endogenous in mouse brain endothelial cells (bEnd3); also called PACSIN-2; Syn-2; source: endogenous, bEnd3 mouse brain endothelial cells (fixed, permeabilized)
B2: apolipoprotein E (ligand, mouse (endogenous in bEnd3), UniProt P08226 19-311, looked up)
chain: EGEPEVTDQLEWQSNQPWEQALNRFWDYLRWVQTLSDQVQEELQSSQVTQELTALMEDTMTEVKAYKKELEEQLGPVAEETRARLGKEVQAAQARLGADMEDLRNRLGQYRNEVHTMLGQSTEEIRARLSTHLRKMRKRLMRDAEDLQKRLAVYKAGAREGAERGVSAIRERLGPLVEQGRQRTANLGAGAAQPLRDRAQAFGDRIRGRLEEVGNQARDRLEEVREHMEEVRSKMEEQTQQIRLQAEIFQARLKGWFEPIVEDMHRQWANLMEKIQASVATNPIITPVAQENQ
notes: apolipoprotein E (ApoE), detected in mouse brain endothelial cells (bEnd3); also called ApoE; source: endogenous, bEnd3 mouse brain endothelial cells (fixed, permeabilized)

Experiments:
Assay in all cases: proximity ligation; Duolink PLA between two endogenous proteins in polarized bEnd3 monolayers, fixed in 4% PFA and permeabilized with 0.1% Triton X-100; two primary antibodies overnight at 4°C; PLA signal normalized by the number of nuclei; also in shRNA control (scramble) and syndapin-2 knockdown cells, and after FAM-Aβ (1–40) or Aβ monomers, oligomers or fibrils for 15 min
Conditions in all cases: partners not purified
[1] = biological target: T1, dynamin-2
[2] = biological target: B2
[3] = biological target: T3, heavy chain of clathrin (mouse (endogenous in bEnd3), UniProt Q68FD5 1-1675)
T3 construct: clathrin heavy chain, endogenous in mouse brain endothelial cells (bEnd3); source: endogenous, bEnd3 mouse brain endothelial cells (fixed, permeabilized)

[4] = biological target: β-actin (mouse (endogenous in bEnd3), UniProt P60710 1-375)
[5] = biological target: T4, low-density lipoprotein receptor-related protein 1 (mouse (endogenous in bEnd3), UniProt Q91ZX7 20-4545)
T4 construct: low-density lipoprotein receptor-related protein 1 (LRP1), endogenous in mouse brain endothelial cells (bEnd3); also called LRP1; source: endogenous, bEnd3 mouse brain endothelial cells (fixed, permeabilized)
T4 sequence (Q91ZX7 20-4545): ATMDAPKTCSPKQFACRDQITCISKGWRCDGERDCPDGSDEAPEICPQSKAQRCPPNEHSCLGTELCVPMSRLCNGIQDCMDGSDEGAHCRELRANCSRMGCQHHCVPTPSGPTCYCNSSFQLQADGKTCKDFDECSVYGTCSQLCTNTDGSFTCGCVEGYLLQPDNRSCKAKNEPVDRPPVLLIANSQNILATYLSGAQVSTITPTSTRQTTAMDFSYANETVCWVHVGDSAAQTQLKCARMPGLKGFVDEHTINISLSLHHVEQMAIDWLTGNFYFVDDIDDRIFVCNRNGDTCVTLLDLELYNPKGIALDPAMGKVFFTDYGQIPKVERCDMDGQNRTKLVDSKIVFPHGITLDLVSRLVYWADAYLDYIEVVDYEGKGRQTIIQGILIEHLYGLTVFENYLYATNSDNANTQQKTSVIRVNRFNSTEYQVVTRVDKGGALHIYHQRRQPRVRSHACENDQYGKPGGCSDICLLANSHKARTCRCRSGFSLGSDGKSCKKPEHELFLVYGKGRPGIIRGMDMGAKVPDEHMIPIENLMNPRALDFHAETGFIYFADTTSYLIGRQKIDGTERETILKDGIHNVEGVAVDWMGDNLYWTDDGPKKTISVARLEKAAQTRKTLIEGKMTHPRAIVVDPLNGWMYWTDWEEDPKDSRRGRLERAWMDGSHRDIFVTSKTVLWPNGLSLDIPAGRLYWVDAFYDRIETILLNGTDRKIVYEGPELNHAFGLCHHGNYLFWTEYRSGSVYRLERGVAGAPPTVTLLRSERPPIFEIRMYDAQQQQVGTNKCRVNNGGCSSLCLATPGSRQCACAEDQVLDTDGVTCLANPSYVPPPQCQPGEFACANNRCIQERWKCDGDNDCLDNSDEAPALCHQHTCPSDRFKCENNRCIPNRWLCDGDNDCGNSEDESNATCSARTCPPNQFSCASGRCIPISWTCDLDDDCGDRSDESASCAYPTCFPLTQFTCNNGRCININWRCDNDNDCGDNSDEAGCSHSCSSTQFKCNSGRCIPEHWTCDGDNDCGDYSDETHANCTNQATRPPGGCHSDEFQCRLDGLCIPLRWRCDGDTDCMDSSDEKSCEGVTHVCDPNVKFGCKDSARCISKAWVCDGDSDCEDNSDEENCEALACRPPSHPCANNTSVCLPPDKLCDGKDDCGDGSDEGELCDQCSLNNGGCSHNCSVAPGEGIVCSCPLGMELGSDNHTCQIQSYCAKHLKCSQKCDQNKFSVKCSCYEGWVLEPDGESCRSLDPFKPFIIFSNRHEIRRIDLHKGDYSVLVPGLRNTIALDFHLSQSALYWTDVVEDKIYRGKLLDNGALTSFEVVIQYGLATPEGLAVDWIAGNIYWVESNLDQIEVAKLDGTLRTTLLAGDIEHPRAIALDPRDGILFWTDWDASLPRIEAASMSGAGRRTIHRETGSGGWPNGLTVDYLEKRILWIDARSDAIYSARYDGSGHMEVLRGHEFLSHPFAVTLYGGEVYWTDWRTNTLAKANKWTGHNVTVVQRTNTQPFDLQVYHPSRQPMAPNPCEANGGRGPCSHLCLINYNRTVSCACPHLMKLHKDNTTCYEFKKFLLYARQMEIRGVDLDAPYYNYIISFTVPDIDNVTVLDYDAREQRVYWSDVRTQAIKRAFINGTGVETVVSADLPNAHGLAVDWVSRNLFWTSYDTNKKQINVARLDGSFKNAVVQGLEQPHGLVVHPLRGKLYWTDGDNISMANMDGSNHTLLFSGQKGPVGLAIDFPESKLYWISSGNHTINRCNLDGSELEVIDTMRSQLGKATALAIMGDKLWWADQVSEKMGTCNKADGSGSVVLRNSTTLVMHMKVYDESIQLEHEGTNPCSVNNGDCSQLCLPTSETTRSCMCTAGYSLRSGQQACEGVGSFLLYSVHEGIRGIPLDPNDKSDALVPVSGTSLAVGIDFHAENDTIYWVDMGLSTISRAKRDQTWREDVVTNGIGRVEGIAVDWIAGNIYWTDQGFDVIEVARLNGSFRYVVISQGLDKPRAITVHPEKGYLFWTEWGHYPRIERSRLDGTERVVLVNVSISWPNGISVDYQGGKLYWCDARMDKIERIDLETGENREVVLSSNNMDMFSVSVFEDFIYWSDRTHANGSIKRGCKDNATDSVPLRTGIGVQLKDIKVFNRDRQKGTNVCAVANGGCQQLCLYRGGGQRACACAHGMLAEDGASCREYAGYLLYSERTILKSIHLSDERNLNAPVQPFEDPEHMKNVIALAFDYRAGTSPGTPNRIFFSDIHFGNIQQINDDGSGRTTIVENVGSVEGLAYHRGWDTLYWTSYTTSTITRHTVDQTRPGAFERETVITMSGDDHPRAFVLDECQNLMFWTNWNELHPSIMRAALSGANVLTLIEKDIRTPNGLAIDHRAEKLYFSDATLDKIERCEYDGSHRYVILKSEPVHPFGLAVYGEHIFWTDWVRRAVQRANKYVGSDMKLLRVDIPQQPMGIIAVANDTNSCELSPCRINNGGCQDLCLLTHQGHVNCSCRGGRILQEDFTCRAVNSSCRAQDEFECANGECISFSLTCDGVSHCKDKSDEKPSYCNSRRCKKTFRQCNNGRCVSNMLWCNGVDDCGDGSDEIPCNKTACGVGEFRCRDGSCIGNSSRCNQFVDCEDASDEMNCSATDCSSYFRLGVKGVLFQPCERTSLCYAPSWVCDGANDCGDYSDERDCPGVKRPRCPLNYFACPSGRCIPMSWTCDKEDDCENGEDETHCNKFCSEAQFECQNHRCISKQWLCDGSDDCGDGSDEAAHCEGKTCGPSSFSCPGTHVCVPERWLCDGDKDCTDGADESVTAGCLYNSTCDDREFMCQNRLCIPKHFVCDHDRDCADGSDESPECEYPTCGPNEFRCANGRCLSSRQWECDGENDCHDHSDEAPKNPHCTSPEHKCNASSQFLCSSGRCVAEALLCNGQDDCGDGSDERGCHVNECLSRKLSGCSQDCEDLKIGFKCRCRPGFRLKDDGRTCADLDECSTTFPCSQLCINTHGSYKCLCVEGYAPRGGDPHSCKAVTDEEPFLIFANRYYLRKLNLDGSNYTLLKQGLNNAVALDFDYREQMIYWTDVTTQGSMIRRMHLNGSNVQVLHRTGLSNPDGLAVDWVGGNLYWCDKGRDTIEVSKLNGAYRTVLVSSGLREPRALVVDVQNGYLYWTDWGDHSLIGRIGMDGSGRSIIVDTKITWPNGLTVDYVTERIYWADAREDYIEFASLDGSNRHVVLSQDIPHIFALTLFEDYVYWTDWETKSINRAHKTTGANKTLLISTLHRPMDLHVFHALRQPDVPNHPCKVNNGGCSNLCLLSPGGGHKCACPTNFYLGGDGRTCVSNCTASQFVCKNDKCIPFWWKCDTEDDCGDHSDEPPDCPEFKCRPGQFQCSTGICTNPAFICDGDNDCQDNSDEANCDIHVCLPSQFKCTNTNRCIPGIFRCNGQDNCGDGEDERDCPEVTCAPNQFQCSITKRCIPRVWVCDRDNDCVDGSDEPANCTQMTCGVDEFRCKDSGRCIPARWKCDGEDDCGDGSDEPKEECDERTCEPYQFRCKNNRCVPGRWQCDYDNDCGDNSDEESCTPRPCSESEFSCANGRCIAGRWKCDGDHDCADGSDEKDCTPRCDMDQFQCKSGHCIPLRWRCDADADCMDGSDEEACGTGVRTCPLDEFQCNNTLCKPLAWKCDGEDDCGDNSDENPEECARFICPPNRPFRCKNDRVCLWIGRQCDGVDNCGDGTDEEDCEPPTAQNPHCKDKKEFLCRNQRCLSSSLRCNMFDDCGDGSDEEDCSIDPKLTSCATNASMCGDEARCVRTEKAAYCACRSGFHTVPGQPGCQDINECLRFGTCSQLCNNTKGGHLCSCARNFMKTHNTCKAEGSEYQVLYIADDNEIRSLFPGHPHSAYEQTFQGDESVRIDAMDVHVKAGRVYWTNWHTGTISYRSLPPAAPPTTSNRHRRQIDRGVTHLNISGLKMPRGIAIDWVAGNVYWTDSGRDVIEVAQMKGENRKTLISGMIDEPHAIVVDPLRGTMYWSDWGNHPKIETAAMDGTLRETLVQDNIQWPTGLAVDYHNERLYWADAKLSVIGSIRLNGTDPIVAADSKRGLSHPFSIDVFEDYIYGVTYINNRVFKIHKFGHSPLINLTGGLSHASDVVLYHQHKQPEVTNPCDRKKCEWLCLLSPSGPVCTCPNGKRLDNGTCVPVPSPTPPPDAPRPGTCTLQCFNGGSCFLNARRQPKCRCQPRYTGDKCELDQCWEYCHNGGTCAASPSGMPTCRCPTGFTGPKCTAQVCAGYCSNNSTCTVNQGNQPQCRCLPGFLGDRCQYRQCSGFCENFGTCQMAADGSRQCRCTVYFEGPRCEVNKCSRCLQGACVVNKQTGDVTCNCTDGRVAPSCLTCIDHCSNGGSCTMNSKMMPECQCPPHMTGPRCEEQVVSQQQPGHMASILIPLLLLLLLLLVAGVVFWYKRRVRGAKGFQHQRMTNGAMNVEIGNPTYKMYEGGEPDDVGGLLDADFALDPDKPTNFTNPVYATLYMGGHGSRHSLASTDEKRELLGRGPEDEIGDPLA

[6] = biological target: T2, EEA-1

Binder	PLA dots per cell [1] [dots per cell]	PLA dots per cell [2] [dots per cell]	PLA dots per cell [3] [dots per cell]	PLA dots per cell [4] [dots per cell]	PLA dots per cell [5] [dots per cell]	PLA dots per cell [6] [dots per cell]
B1	~150	~250	~150	~150	~250	< 20
B2	–	–	–	–	~80	–
